According to publication PMC3269379, “The Host-Pathogen interaction of human cyclophilin A and HIV-1 Vpr requires specific N-terminal and novel C-terminal domains” (BMC Structural Biology, 2011):
“And” between values parts separate entries of the source, which are not always exact repeats. Identical values can stand only once.

Key:
Details in all cases: both partners purified
[1] = target: T1, human cyclophilin A (human, UniProt P62937 1-165); assay: SPR
T1 construct: also called CypA; peptidyl prolyl isomerase cyclophilin A; source: recombinant, highly pure; production and purification described previously [14]

[2] = target: T1, human cyclophilin A; assay: ITC
[3] = target: T1, human cyclophilin A; assay: SPR; remark: listed apart in the source

T1 sequence (P62937 whole entry): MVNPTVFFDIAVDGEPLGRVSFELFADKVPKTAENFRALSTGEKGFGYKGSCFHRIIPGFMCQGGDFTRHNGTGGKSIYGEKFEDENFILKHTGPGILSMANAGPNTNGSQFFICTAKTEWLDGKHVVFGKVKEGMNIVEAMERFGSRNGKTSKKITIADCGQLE

B1: Vpr^75-90 (peptide)
peptide: GCRHSRIGVTRQRRAR
notes: HIV-1 Vpr residues 75-90; source: synthetic peptide
- Kd [1]: 280 nM
- koff [1]: 0.0063 s⁻¹
- kon [1]: 81000 M⁻¹ s⁻¹
- Ka [2]: 9e+06 M⁻¹ and 1.7e+07 M⁻¹
- Kd [2]: 120 nM and 60 nM
- dH [2]: -17.4 kcal/mol and -16.5 kcal/mol
- stoichiometry N [2]: 0.98 and 1

Binder: GCRHSAIGVTRQRRAR (source: synthetic peptide) [Vpr^75-90 (R80A)]
- Kd [1]: 7500 nM
- koff [1]: 0.027 s⁻¹
- kon [1]: 3800 M⁻¹ s⁻¹

B2: full-length synthetic HIV-1 Vpr (Vpr^1-96) (natural protein)
chain: MEQAPEDQGPQREPYNEWTLELLEELKSEAVRHFPRIWLHNLGQHIYETYGDTWAGVEAIIRILQQLLFIHFRIGCRHSRIGVTRQRRARNGASRS
- Kd [1]: 310 nM and 320 nM
- koff [1]: 0.007 s⁻¹ and 0.00422 s⁻¹
- kon [1]: 32000 M⁻¹ s⁻¹ and 16000 M⁻¹ s⁻¹

Binder: AVRHFPRIWLH [Vpr^30-40]
- binding result [3]: binds
